From patent US20180086841A1 (Merck Sharp & Dohme, published 2018)

Experiments:
Test in all cases: flow cytometry on CHO-K1 transfectants, right sub-column
Q15A = target: T1, Q15A
T1 construct: also called hCD27 Q15A
T1 receptor chain: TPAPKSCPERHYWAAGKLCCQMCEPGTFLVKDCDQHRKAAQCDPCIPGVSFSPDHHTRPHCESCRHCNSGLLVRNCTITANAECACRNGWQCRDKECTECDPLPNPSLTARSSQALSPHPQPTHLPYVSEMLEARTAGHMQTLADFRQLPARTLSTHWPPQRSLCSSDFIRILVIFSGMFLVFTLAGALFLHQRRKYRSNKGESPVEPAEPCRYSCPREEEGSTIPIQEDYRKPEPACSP
Procedure: (§1) The hCD27 variants that were tested are listed. Amino acids correspond to the UniProt P26842-1 sequence. Amino acids 1-20 constitute the signal peptide. Binding is expressed as the geometric mean of the FITC signal, relative to antibody binding to hCD27, which was set at 100%.
(§2) The ability of several anti-hCD27 antibodies to bind to a series of hCD27 alanine mutants was determined using CHO-K1 cells, transiently transfected pCI-neo empty vector, pCI-neo.hCD27 and several pCI-neo.CD27Ala mutant constructs.
(§3) Detached cells were transferred to 96 wells round-bottomed well plates at approximately 1.2×10⁵ cells/well. After spinning down the cells, discarding the supernatants and re-suspending the cells in the residual volume, the primary antibodies were added and incubated for 30 minutes at 4° C. Cells were washed three times with DPBS/BSA 1%, followed by centrifugation, discarding of the supernatants and re-suspension in the residual volume. […] After washing once, antibody binding was detected using the HTS plate reader (FACS Canto II) and FlowJo software for data analysis. Debris, dead cells and doublets were excluded from the analysis. Binding was expressed as the geometric mean of the FITC signal, relative to antibody binding to hCD27, which was set at 100%.

G16A = target: T2, G16A
T2 construct: also called hCD27 G16A
T2 receptor chain: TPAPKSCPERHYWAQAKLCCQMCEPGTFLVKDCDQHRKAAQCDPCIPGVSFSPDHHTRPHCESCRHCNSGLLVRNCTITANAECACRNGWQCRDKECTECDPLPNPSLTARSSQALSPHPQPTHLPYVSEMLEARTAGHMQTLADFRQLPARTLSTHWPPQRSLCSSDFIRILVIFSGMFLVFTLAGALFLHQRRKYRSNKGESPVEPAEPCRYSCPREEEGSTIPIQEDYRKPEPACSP
Procedure: as §1, §2, §3

K17A = target: T3, K17A
T3 construct: also called hCD27 K17A
T3 receptor chain: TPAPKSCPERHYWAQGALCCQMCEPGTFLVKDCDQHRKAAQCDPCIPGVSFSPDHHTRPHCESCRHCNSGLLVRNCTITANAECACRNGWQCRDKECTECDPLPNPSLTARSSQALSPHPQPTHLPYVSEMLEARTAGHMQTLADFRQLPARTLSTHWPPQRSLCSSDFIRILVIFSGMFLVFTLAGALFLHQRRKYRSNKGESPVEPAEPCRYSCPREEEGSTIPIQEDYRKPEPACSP
Procedure: as §1, §2, §3

F28A = target: T4, F28A
T4 construct: also called hCD27 F28A
T4 receptor chain: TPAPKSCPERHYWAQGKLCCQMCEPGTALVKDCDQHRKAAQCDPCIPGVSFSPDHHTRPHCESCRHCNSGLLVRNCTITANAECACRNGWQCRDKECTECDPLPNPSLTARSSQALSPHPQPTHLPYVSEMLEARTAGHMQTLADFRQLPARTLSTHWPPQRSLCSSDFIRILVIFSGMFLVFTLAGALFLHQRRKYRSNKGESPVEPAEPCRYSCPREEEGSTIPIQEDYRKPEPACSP
Procedure: as §1, §2, §3

V30A = target: T5, V30A
T5 construct: also called hCD27 V30A
T5 receptor chain: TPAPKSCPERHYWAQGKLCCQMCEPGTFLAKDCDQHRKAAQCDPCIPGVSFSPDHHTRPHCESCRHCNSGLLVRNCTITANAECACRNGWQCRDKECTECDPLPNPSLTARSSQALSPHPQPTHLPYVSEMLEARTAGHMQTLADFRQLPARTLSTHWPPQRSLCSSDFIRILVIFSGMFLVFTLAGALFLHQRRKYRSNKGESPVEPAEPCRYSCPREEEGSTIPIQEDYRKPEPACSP
Procedure: as §1, §2, §3

K31A = target: T6, K31A
T6 construct: also called hCD27 K31A
T6 receptor chain: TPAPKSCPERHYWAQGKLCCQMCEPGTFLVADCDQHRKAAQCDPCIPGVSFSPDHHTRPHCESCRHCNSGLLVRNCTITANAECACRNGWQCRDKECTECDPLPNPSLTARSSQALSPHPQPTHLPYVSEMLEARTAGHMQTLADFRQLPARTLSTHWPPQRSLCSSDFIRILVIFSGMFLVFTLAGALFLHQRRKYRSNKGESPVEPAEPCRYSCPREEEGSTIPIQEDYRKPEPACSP
Procedure: as §1, §2, §3

P44A = target: T7, P44A
T7 construct: also called hCD27 P44A
T7 receptor chain: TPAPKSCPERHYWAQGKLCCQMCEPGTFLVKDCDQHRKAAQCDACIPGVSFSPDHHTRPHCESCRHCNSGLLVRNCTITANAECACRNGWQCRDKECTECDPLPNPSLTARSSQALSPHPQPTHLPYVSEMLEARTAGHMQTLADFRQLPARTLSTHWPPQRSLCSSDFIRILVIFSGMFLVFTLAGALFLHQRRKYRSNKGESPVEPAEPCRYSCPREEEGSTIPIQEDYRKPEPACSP
Procedure: as §1, §2, §3

S63A = target: T8, S63A
T8 construct: also called hCD27 S63A
T8 receptor chain: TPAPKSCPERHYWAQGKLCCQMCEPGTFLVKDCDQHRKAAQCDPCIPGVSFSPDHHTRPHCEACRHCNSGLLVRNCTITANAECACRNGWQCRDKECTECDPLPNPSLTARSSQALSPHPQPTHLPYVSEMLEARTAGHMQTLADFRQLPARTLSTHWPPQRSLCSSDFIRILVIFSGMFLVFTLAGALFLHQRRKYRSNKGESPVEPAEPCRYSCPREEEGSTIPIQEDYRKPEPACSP
Procedure: as §1, §2, §3

R87A = target: T9, R87A
T9 construct: also called hCD27 R87A
T9 receptor chain: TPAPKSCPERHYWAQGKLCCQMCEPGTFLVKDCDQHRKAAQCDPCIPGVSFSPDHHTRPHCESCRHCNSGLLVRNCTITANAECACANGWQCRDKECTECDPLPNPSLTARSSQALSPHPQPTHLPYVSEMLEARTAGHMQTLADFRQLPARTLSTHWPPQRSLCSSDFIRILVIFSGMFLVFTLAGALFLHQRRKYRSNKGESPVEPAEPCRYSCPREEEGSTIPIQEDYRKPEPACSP
Procedure: as §1, §2, §3

N88A = target: T10, N88A
T10 construct: also called hCD27 N88A
T10 receptor chain: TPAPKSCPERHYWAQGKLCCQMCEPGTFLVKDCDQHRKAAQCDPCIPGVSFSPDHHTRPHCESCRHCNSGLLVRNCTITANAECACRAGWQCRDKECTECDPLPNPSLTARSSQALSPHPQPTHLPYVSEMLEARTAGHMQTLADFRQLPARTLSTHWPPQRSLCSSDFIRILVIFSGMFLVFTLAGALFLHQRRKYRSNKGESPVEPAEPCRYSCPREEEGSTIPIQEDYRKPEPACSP
Procedure: as §1, §2, §3

binding, WT hCD27 = 100 (GM FITC) (Q15A): 136% | binding, WT hCD27 = 100 (GM FITC) (G16A): 108% | binding, WT hCD27 = 100 (GM FITC) (K17A): 126% | binding, WT hCD27 = 100 (GM FITC) (F28A): 57.1% | binding, WT hCD27 = 100 (GM FITC) (V30A): 94% | binding, WT hCD27 = 100 (GM FITC) (K31A): 134% | binding, WT hCD27 = 100 (GM FITC) (P44A): 91% | binding, WT hCD27 = 100 (GM FITC) (S63A): 141% | binding, WT hCD27 = 100 (GM FITC) (R87A): 111% | binding, WT hCD27 = 100 (GM FITC) (N88A): 124%
B1: hCD27.131A (mouse parental 131A) (antibody, mouse IgG1, V domains shown)
VH: QIQLVQSGPELKKPGETVKISCKASGYTFTNYGMNWVKQAPGKGLKWMGWINTNTGEPTYAEEFKGRFAFSLETSATTAYLQINNLKNEDTATYFCAREGDAMDYWGQGTSVTVSS
VL: QIVLTQSPAIMSASPGEKVTMTCSASSSVSYMHWYQQKSGTSPKRWIYDTSKLASGVPARFSGSGSGTSYSLTISSMEAEDAATYYCQQWNSYPFTFGSGTKLEIK
notes: Mouse IgG1 antibody; also called mouse hCD27.131A
